Results on 35 molecules are retold here after US20100280101, “METHOD OF INHIBITING CANCER CELL PROLIFERATION, PROLIFERATION INHIBITOR AND SCREENING METHOD” (University of Occupational and Environmental Health Japan, published 2010).

In data set [1] the target is T1, ZNF143 (UniProt P52747 SEQ:1-638).
T1 sequence: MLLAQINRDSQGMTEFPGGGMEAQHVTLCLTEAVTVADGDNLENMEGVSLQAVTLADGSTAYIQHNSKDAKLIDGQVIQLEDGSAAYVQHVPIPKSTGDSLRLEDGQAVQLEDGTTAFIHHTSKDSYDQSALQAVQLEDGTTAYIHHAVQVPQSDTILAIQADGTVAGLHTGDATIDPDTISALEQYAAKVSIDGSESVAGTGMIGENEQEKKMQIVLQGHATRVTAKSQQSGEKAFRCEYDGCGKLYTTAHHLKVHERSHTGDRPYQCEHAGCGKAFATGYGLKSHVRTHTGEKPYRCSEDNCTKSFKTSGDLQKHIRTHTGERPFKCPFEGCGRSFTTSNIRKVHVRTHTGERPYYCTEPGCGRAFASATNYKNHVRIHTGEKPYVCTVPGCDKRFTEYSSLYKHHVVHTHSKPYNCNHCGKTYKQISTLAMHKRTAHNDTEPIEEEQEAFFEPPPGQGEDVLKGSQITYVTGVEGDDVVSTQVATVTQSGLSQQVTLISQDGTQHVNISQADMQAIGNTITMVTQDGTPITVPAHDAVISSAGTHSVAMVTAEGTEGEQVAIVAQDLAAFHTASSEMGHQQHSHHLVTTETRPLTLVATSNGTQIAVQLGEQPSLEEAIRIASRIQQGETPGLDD
As to the kind of experiment: EMSA; also ChIP; binding retained without 5'-terminal 6 bases.

Data set [2] addresses T1, ZNF143. As to the kind of experiment: EMSA; also ChIP.

B1: CDC6 promoter site (dsDNA)
DNA 1: ACTACGCCTCCCAGCGTGCTTTGCG
DNA 2: CGCAAAGCACGCTGGGAGGCGTAGT
Consider B1, for which the binding result with ZNF143 [1] is listed as “binds”.

B2: CDCA4 promoter site (dsDNA)
DNA 1: GCTCCCAGGTCTCCGCGCG
DNA 2: CGCGCGGAGACCTGGGAGC
Consider B2, for which the binding result with ZNF143 [2] is “binds”.

B3: ESPL1 promoter site 1 (dsDNA)
DNA 1: TTACCCGCCGCGCTGCGCG
DNA 2: CGCGCAGCGCGGCGGGTAA
Consider B3, for which the binding result with ZNF143 [2] was “binds”.

B4: CCNE2 promoter site (dsDNA)
DNA 1: CTTCCCACCCGGCCAGGTC
DNA 2: GACCTGGCCGGGTGGGAAG
As for B4, the binding result with ZNF143 [2] is “binds”.

B5: ESPL1 promoter site 2 (dsDNA)
DNA 1: ACTCCCAGCGTGCCGCGCG
DNA 2: CGCGCGGCACGCTGGGAGT
B5: in the data set with ZNF143 [2], the binding result is on record as “binds”.

B6: CDC2L6 promoter site 1 (dsDNA)
DNA 1: AATACAGCTCCCAGGTTACCTCGGG
DNA 2: CCCGAGGTAACCTGGGAGCTGTATT
In the case of B6, the binding result with ZNF143 [1] is given as “binds”.

B7: SPBC25 promoter site (dsDNA)
DNA 1: ACTACGAATCCCAGAATGCCCTGTT
DNA 2: AACAGGGCATTCTGGGATTCGTAGT
For B7, the binding result with ZNF143 [1] was “binds”.

B8: CCNA2 promoter site (dsDNA)
DNA 1: CAGGCACTGCCCAGCGTGGCGAGCC
DNA 2: GGCTCGCCACGCTGGGCAGTGCCTG
For B8, the binding result with ZNF143 [1] is on record as “binds”.

B9: PLK1 promoter site 1 (dsDNA)
DNA 1: CAGGGCGCTCCCATGGTGCCGCGCG
DNA 2: CGCGCGGCACCATGGGAGCGCCCTG
With B9, the binding result with ZNF143 [1] is “binds”.

B10: CDC2L6 promoter site 2 (dsDNA)
DNA 1: ACTTCATTTCCCAGGAGCCTCCGCG
DNA 2: CGCGGAGGCTCCTGGGAAATGAAGT
With B10, the binding result in the data set with ZNF143 [1] is given as “binds”.

B11: UHRF1 promoter site (dsDNA)
DNA 1: ACTCCCAGGATGCCCTTCC
DNA 2: GGAAGGGCATCCTGGGAGT
In the case of B11, in the data set with ZNF143 [2], the binding result is “binds”.

B12: CDKN2C promoter site (dsDNA)
DNA 1: ATCCCCAAAATCCAAGCCA
DNA 2: TGGCTTGGATTTTGGGGAT
For the molecule B12, the binding result with ZNF143 [2] is listed as “binds”.

B13: CCNF promoter site (dsDNA)
DNA 1: ACCCCCAGCTTGCACGGCC
DNA 2: GGCCGTGCAAGCTGGGGGT
As for B13, the binding result with ZNF143 [2] is listed as “binds”.

B14: MCM2 promoter site (dsDNA)
DNA 1: CCTCGGCTTCCCAAAGTGCTGGGAT
DNA 2: ATCCCAGCACTTTGGGAAGCCGAGG
Turning to B14, the binding result with ZNF143 [1] is on record as “binds”.

B15: CDCA8 promoter site 2 (dsDNA)
DNA 1: CCCGCCCTCCCCACCAACCCACCCG
DNA 2: CGGGTGGGTTGGTGGGGAGGGCGGG
Regarding B15, in the data set with ZNF143 [1], the binding result is “binds”.

B16: BIRC5 (survivin) promoter site (dsDNA)
DNA 1: GCCCCCACCCTCCACTGGG
DNA 2: CCCAGTGGAGGGTGGGGGC
Regarding B16, the binding result with ZNF143 [2] is on record as “binds”.

B17: MCM4 promoter site 2 (dsDNA)
DNA 1: TTTCCCGGGGACCCCTGCG
DNA 2: CGCAGGGGTCCCCGGGAAA
Regarding B17, the binding result in the data set with ZNF143 [2] is recorded as “binds”.

B18: AURKB promoter site (dsDNA)
DNA 1: CCTCGGCTTCCCAAAATGCTGGGAT
DNA 2: ATCCCAGCATTTTGGGAAGCCGAGG
Turning to B18, the binding result with ZNF143 [1] is reported as “binds”.

B19: CDK2 promoter site (dsDNA)
DNA 1: CATTGCTTTCCCATCCTGCTACTCA
DNA 2: TGAGTAGCAGGATGGGAAAGCAATG
With B19, in the data set with ZNF143 [1], the binding result is “binds”.

B20: WEE1 promoter site (dsDNA)
DNA 1: TTAATCTGTCCCTTAATGCACTTAC
DNA 2: GTAAGTGCATTAAGGGACAGATTAA
Turning to B20, the binding result with ZNF143 [1] is listed as “binds”.

B21: RFC4 promoter site (dsDNA)
DNA 1: CCAGCCTAGCCCACTGTGCATGAAG
DNA 2: CTTCATGCACAGTGGGCTAGGCTGG
As for B21, the binding result in the data set with ZNF143 [1] is “binds”.

B22: CDT1 promoter site 2 (dsDNA)
DNA 1: CCTCCCCCCGTGCTCTGCC
DNA 2: GGCAGAGCACGGGGGGAGG
For B22, the binding result with ZNF143 [2] is “binds”.

B23: CDCA5 promoter site (dsDNA)
DNA 1: TGCGCCTCTCCCTTCAGCCCCGGCC
DNA 2: GGCCGGGGCTGAAGGGAGAGGCGCA
Take B23: in the data set with ZNF143 [1], the binding result is recorded as “binds”.

B24: MCM3 promoter site (dsDNA)
DNA 1: ACTCCCAGAACGCAATGCC
DNA 2: GGCATTGCGTTCTGGGAGT
Regarding B24, the binding result in the data set with ZNF143 [2] was “binds”.

B25: MCM5 promoter site (dsDNA)
DNA 1: GTGCCCATTTTGCATTGGG
DNA 2: CCCAATGCAAAATGGGCAC
B25: the binding result with ZNF143 [2] is “binds”.

B26: GTSE1 promoter site (dsDNA)
DNA 1: ACTACAATACCCAGGACGCACCCAG
DNA 2: CTGGGTGCGTCCTGGGTATTGTAGT
For B26, in the data set with ZNF143 [1], the binding result is listed as “binds”.

B27: PLK1 promoter site 2 (dsDNA)
DNA 1: GCTCCCATGGTGCCGCGCG
DNA 2: CGCGCGGCACCATGGGAGC
B27: the binding result with ZNF143 [2] is reported as “binds”.

B28: CDCA3 promoter site (dsDNA)
DNA 1: GACGTAGTTCCCATAGGCCCTCCAC
DNA 2: GTGGAGGGCCTATGGGAACTACGTC
Take B28: in the data set with ZNF143 [1], the binding result is “binds”.

B29: PFS2 promoter site (dsDNA)
DNA 1: TCTCGACTTCCCAAAGTGCTGGGAT
DNA 2: ATCCCAGCACTTTGGGAAGTCGAGA
In the case of B29, the binding result with ZNF143 [1] is recorded as “binds”.

B30: RFC2 promoter site (dsDNA)
DNA 1: GGTGGAATTCCCATCTTGCAGCCGA
DNA 2: TCGGCTGCAAGATGGGAATTCCACC
Consider B30, for which, in the data set with ZNF143 [1], the binding result is reported as “binds”.

B31: CDT1 promoter site 1 (dsDNA)
DNA 1: CCCTTCCCTCCCCCCGTGCTCTGCC
DNA 2: GGCAGAGCACGGGGGGAGGGAAGGG
On to B31, for which the binding result in the data set with ZNF143 [1] was “binds”.

B32: BUB1 promoter site (dsDNA)
DNA 1: TCTCCCCACCTGCCTCCCG
DNA 2: CGGGAGGCAGGTGGGGAGA
Regarding B32, in the data set with ZNF143 [2], the binding result is listed as “binds”.

B33: CDCA8 promoter site 1 (dsDNA)
DNA 1: ACTACTACTCCCGGCAGGCCTTGTG
DNA 2: CACAAGGCCTGCCGGGAGTAGTAGT
With B33, the binding result in the data set with ZNF143 [1] is listed as “binds”.

B34: ZNF367 (CDC14B) promoter site (dsDNA)
DNA 1: CGGGTCCTTCCCACCTCGCCATTGG
DNA 2: CCAATGGCGAGGTGGGAAGGACCCG
In the case of B34, the binding result with ZNF143 [1] is recorded as “binds”.

B35: MCM4 promoter site 1 (dsDNA)
DNA 1: GTACCCACCCAGCACCGCG
DNA 2: CGCGGTGCTGGGTGGGTAC
As for B35, the binding result with ZNF143 [2] is given as “binds”.
